Results reported in patent publication US20240210403A1 (MARTELL DIAGNOSTIC LABORATORIES, published 2024).

Biological target: T1, human HER2 protein present in serum samples (human, UniProt P04626 23-652)
T1 construct: extracellular domain; Endogenous analyte in human sera; also called sHER2; serum HER2
Experiment: sandwich ELISA, 1B7 capture/1G5-biotin detection
Description: Standards, controls and samples were pipetted into the wells, and any HER2 present was bound by the immobilized antibody. […] Following a wash to remove unbound conjugate, a substrate solution was added to the wells, and color developed in proportion to the amount of HER2 bound. After color development was stopped, the absorbance was measured using a microplate spectrophotometer.
Sample Buffer/Antibody Diluent (10% Casein in 1×PBS) was prepared (˜40 mL/plate). After incubation, plates were washed on a plate washer as described herein. 245 μL of Sample Buffer then was pipetted into a labeled snap-cap tube for each patient sample to be tested, as well as for each standard and control. A 1:50 dilution of each patient sample as well as each standard and control was generated (e.g., 5 μL of each sample in 95 μL of Sample Buffer). 100 μL of each sample (patient, standard, control, and blank (i.e., 100 μL of Sample Buffer)) was pipetted into their respective wells as indicated on the plate map. The wells were covered with an adhesive plate cover, placed in a microplate shaker (Corning LSE Digital Microplate Shaker) at 500 rpms for 1 min, and then incubated at room temperature for 1 hour.
After incubation, plates were washed on a plate washer as described herein. […] 100 μL was pipetted into each well and the plate was covered with an adhesive plate cover. […]

B1: 1B7 anti-HER2 rabbit monoclonal antibody (antibody, V domains shown)
VH: QSVEESGGRLVTPGTPLTLTCTVSGIDLSDYAMGWVRQAPGKGLEYIGIISSSGNTHYARWARGRFTISKTSSTTVDLKMTSLTTEDTATYFCARNYPGYANYALWGQGTLVTVSS
VL: RIVMTQTPASVSAAVGGTVTIKCQASESISNWLSWYQQKPGQPPKLLIYRASTLASGVPSRFSGSGSGTEYTLTISDLECADAATYYCQQDYIYNDIDNAFGGGTEVVVKG
notes: Recombinant rabbit IgG (gamma 1 heavy, kappa 1 light) expressed in 293F cells; Used as the coated capture antibody; also called Capture Antibody (1B7; Yurogen)
binding result: binds
